Results published in patent publication US20080009038A1 (Chugai, published 2008).

T1: human Mp1 (human, UniProt P40238 26-491, limits assumed)
T1 construct: The analyses of section 1.6 used shMp1-FLAG and hMp1-Fc in ELISA, and CHO-human Mp1 and BaF3-human Mp1 cells; also called human Mpl; TPO receptor
T1 sequence (looked up): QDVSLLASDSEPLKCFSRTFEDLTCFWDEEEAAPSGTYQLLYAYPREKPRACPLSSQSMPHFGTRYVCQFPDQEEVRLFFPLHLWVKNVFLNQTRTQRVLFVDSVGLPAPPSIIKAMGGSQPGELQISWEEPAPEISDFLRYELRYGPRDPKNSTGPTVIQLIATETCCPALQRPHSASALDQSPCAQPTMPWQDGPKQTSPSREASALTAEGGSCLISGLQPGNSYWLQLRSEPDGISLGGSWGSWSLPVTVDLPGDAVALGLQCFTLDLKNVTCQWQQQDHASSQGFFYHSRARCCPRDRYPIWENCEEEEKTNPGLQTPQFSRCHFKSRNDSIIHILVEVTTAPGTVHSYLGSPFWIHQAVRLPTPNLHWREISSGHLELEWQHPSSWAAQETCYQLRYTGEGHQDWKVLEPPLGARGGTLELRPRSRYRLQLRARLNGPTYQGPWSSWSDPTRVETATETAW


Assays:
[1] = biological target: full-length human Mp1 expressed on BaF3 cells (human) (UniProt P40238); assay: cell-based or functional assay
human Mp1 = biological target: T1, human Mp1; assay: hybridoma supernatants; ELISA on shMp1-FLAG and hMp1-Fc, flow cytometry on CHO-human Mp1 cells, BaF3-human Mp1 proliferation
Method: MRL/MpJUmmCrj-lpr/lpr mice (hereinafter abbreviated as “MRL/lpr mice”; purchased from Charles River, Japan) were immunized; the primary immunization was carried out at eight weeks of age. For every single mouse, an emulsion containing 100 μg of shMPL-FLAG combined with Freud's complete adjuvant (H37 Ra; Beckton Dickinson), was administered subcutaneously as the primary injection. As a booster injection, an emulsion containing shMPL-FLAG (50 μg per mouse) combined with Freud's incomplete adjuvant (Beckton Dickinson) was administered subcutaneously. Three mice which have been immunized six times in total were subjected to a final injection of shMPL-FLAG (50 μg per mouse) through the caudal vein. Cell fusion was achieved by mixing the mouse myeloma P3-X63Ag8U1 cells (P3U1; purchased from ATCC) and mouse splenocytes using polyethylene glycol 1500 (Roche Diagnostics). Hybridoma selection in HAT medium began the following day and culture supernatants were obtained. Screening was carried out by ELISA using immunoplates with immobilized shMp1-FLAG or hMp1-Fc, and by a cell proliferation assay of BaF3-hMp1. Positive clones were isolated as single clones by limiting dilution and then cultured on a large scale. The culture supernatants were collected. Anti-human Mp1 antibody-producing hybridomas, VB22B, VB16, VB140, and VB45B, were obtained by this method.

Row | Binder | agonistic activity (EC50 value: pM) in BaF3-human Mpl, cell proliferation (WST-8) [1] [pM] | binding result (human Mp1)
1 | VB45B sc(Fv)2 (scFv, part only; not given: linkers and FLAG tag, part only) scFv, part: QVQLQQSGPELVKPGASVKISCKASGYAFSSSWMNWVKQRPGKGLEWIGRIYPGDGETNNNGKFKGKATLTADKSSTTAYMQLSSLTSEDSAVYFCARGYGDYSFAYWGQGTLVTVSADIVMTQAAPSVPVTPGESVSISCRSSKSLLHSNGNTYLYWFLQRPGQSPQLLIYRMSNLASGVPDRFSGSGSGAAFTLRISRVEAEDVGVYYCMQHLEYPYTFGSGTKLEIKQVQLQQSGPELVKPGASVKISCKASGYAFSSSWMNWVKQRPGKGLEWIGRIYPGDGETNNNGKFKGKATLTADKSSTTAYMQLSSLTSEDSAVYFCARGYGDYSFAYWGQGTLVTVSADIVMTQAAPSVPVTPGESVSISCRSSKSLLHSNGNTYLYWFLQRPGQSPQLLIYRMSNLASGVPDRFSGSGSGAAFTLRISRVEAEDVGVYYCMQHLEYPYTFGSGTKLEIK | 30 | –
2 | VB16 diabody (scFv, V domains shown, part only, (Gly4Ser)1 linker; C-terminal FLAG tag) VH: QVQLQQPGTELVRPGASVKLSCKASGYTFTDYWVNWVKQRPGRGLEWIGRIHPYDSETHYNQKFKNKATLTVDKSSSTAYIQLSSLTSEDSAVYYCASGGWFASWGQGTLVTVSA VL: DIVMTQAAPSVPVTPGESVSISCRSSKSLLYSNGNTYLYWFLQRPGQSPQLLIYRMSNLASGVPDRFSGSGSGTAFTLTISSVEAEDVGVYYCMQHLEYPYTFGSGTKLEIK | 190 | –
3 | VB45B diabody (scFv, V domains shown, part only, (Gly4Ser)1 linker; C-terminal FLAG tag) VH: QVQLQQSGPELVKPGASVKISCKASGYAFSSSWMNWVKQRPGKGLEWIGRIYPGDGETNNNGKFKGKATLTADKSSTTAYMQLSSLTSEDSAVYFCARGYGDYSFAYWGQGTLVTVSA VL: DIVMTQAAPSVPVTPGESVSISCRSSKSLLHSNGNTYLYWFLQRPGQSPQLLIYRMSNLASGVPDRFSGSGSGAAFTLRISRVEAEDVGVYYCMQHLEYPYTFGSGTKLEIK | 76 | –
4 | VB16 sc(Fv)2 (scFv, part only; not given: linkers and FLAG tag, part only) scFv, part: QVQLQQPGTELVRPGASVKLSCKASGYTFTDYWVNWVKQRPGRGLEWIGRIHPYDSETHYNQKFKNKATLTVDKSSSTAYIQLSSLTSEDSAVYYCASGGWFASWGQGTLVTVSADIVMTQAAPSVPVTPGESVSISCRSSKSLLYSNGNTYLYWFLQRPGQSPQLLIYRMSNLASGVPDRFSGSGSGTAFTLTISSVEAEDVGVYYCMQHLEYPYTFGSGTKLEIKQVQLQQPGTELVRPGASVKLSCKASGYTFTDYWVNWVKQRPGRGLEWIGRIHPYDSETHYNQKFKNKATLTVDKSSSTAYIQLSSLTSEDSAVYYCASGGWFASWGQGTLVTVSADIVMTQAAPSVPVTPGESVSISCRSSKSLLYSNGNTYLYWFLQRPGQSPQLLIYRMSNLASGVPDRFSGSGSGTAFTLTISSVEAEDVGVYYCMQHLEYPYTFGSGTKLEIK | 95 | –
5 | TA136 diabody (scFv, V domains shown, part only, (Gly4Ser)1 linker; C-terminal FLAG tag) VH: DVQLQESGPGLVKPSQSLSLTCTVTGYSITSDYAWSWIRQLPGNKLEWMGYITYSGYSIYNPSLKSRISISRDTSKNQLFLQLNSVTTEDTATYYCVGGYDNMDYWGQGTSVTVSS VL: QIVLTQSPAIMSASPGEKVTLTCSASSSVSSSHLYWYQQKPGSSPKLWIYSTSNLASGVPARFSGSGSGTSYSLTISNMETEDAASYFCHQWSSYPWTFGGGTKLEIK | 3080 | –
6 | TA136 sc(Fv)2 (scFv, part only; not given: linkers and FLAG tag, part only) scFv, part: DVQLQESGPGLVKPSQSLSLTCTVTGYSITSDYAWSWIRQLPGNKLEWMGYITYSGYSIYNPSLKSRISISRDTSKNQLFLQLNSVTTEDTATYYCVGGYDNMDYWGQGTSVTVSSQIVLTQSPAIMSASPGEKVTLTCSASSSVSSSHLYWYQQKPGSSPKLWIYSTSNLASGVPARFSGSGSGTSYSLTISNMETEDAASYFCHQWSSYPWTFGGGTKLEIKDVQLQESGPGLVKPSQSLSLTCTVTGYSITSDYAWSWIRQLPGNKLEWMGYITYSGYSIYNPSLKSRISISRDTSKNQLFLQLNSVTTEDTATYYCVGGYDNMDYWGQGTSVTVSSQIVLTQSPAIMSASPGEKVTLTCSASSSVSSSHLYWYQQKPGSSPKLWIYSTSNLASGVPARFSGSGSGTSYSLTISNMETEDAASYFCHQWSSYPWTFGGGTKLEIK | 54 | –

Results, then the binder that gave them:

Row | agonistic activity (EC50 value: pM) in BaF3-human Mpl, cell proliferation (WST-8) [1] [pM] | binding result (human Mp1) | Binder
7 | 38 | – | VB140 sc(Fv)2 (scFv, part only; not given: linkers and FLAG tag, part only) scFv, part: QVQLQQSGPELVKPGASVKISCRAFGYAFSNSWMNWVKQRPGKGLEWIGRIYPGDGETNNNGKFKGKATLTADKSSSTAYMQLSSLTSEDSAVYFCARGYGDYSFAYWGQGTLVTVSADIVMTQAAPSVPVTPGESVSISCRSSKSLLHSNGNTYLYWFLQRPGQSPQLLIYRMSNLASGVPDRFSGSGSGAAFTLRISRVEAEDVGVYYCMQHLEYPYTFGSGTKLEIKQVQLQQSGPELVKPGASVKISCRAFGYAFSNSWMNWVKQRPGKGLEWIGRIYPGDGETNNNGKFKGKATLTADKSSSTAYMQLSSLTSEDSAVYFCARGYGDYSFAYWGQGTLVTVSADIVMTQAAPSVPVTPGESVSISCRSSKSLLHSNGNTYLYWFLQRPGQSPQLLIYRMSNLASGVPDRFSGSGSGAAFTLRISRVEAEDVGVYYCMQHLEYPYTFGSGTKLEIK
8 | – | binds | anti-human Mp1 antibody VB22B (antibody, mouse IgG2b, V domains shown, Mouse monoclonal antibody from a hybridoma, tested as culture supernatant; they were cloned with primers for the mouse IgG2b and kappa constant regions) VH: QVQLQQSGPELVKPGASVKISCKASGYAFTNSWMNWVKQRPGKGLEWIGRIYPGDGETIYNGKFRVKATLTADKSSSTAYMDISSLTSEDSAVYFCARGYDDYSFAYWGQGTLVTVSA VL: DIVMTQAAPSIPVTPGESVSISCRSSKSLLHSNGNTYLYWFLQRPGQSPQLLIYRMSNLASGVPDRFSGSGSGTAFTLRISRVEAEDVGVYYCMQHIEYPFTFGSGTKLEIK
9 | 89 | – | VB140 diabody (scFv, V domains shown, part only, (Gly4Ser)1 linker; C-terminal FLAG tag) VH: QVQLQQSGPELVKPGASVKISCRAFGYAFSNSWMNWVKQRPGKGLEWIGRIYPGDGETNNNGKFKGKATLTADKSSSTAYMQLSSLTSEDSAVYFCARGYGDYSFAYWGQGTLVTVSA VL: DIVMTQAAPSVPVTPGESVSISCRSSKSLLHSNGNTYLYWFLQRPGQSPQLLIYRMSNLASGVPDRFSGSGSGAAFTLRISRVEAEDVGVYYCMQHLEYPYTFGSGTKLEIK
